Patent US20210115151A1 (TOHOKU UNIVERSITY, published 2021)

T1: human podoplanin D82A (human, UniProt Q86YL7 23-162)
T1 construct: Alanine point mutant tested by flow cytometry
T1 chain: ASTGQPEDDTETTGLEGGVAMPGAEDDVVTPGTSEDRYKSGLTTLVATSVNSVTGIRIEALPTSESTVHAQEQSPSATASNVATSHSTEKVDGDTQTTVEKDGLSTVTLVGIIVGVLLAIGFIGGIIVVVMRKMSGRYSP

T2: human podoplanin T85A (human, UniProt Q86YL7 23-162)
T2 chain: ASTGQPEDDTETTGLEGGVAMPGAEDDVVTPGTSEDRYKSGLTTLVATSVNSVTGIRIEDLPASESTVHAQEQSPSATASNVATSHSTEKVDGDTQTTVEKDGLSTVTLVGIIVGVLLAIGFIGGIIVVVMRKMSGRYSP

T3: human podoplanin I78A (human, UniProt Q86YL7 23-162)
T3 construct: Alanine point mutant tested by flow cytometry
T3 chain: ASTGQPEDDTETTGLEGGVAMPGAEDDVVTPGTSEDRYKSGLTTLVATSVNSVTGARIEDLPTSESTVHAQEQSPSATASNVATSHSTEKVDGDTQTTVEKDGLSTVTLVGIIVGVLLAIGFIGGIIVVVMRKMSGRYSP

T4: human podoplanin E81A (human, UniProt Q86YL7 23-162)
T4 construct: Alanine point mutant tested by flow cytometry
T4 chain: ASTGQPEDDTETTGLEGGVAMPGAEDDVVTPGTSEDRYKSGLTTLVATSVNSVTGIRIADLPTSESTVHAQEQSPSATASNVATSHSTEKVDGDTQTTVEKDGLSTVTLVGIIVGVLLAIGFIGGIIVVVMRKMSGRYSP

T5: human podoplanin I80A (human, UniProt Q86YL7 23-162)
T5 construct: Alanine point mutant tested by flow cytometry
T5 chain: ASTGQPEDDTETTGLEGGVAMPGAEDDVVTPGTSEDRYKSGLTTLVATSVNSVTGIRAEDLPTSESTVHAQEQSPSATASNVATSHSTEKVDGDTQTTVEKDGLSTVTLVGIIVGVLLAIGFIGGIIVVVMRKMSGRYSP

T6: human podoplanin on cancer cells (glioblastoma LN319, lung cancer PC-10) (human, UniProt Q86YL7 23-162, sialylated O-glycan on Thr85 (as the filing concludes for podoplanin on cancer cells))
T6 construct: Endogenous podoplanin on cancer cell lines LN319 and PC-10; also called hPDPN; cancer-type podoplanin
T6 chain: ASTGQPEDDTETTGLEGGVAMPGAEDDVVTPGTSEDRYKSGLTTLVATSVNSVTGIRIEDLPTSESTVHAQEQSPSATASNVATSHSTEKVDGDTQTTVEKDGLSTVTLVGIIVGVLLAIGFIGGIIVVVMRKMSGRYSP


Assays:
human podoplanin D82A = biological target: T1, human podoplanin D82A; assay: flow cytometry, alanine scan 77-89
human podoplanin T85A = biological target: T2, human podoplanin T85A; assay: flow cytometry, alanine scan 77-89
human podoplanin I78A = biological target: T3, human podoplanin I78A; assay: flow cytometry, alanine scan 77-89
human podoplanin E81A = biological target: T4, human podoplanin E81A; assay: flow cytometry, alanine scan 77-89
human podoplanin I80A = biological target: T5, human podoplanin I80A; assay: flow cytometry, alanine scan 77-89
[1] = biological target: T6, human podoplanin on cancer cells …; assay: flow cytometry, ExpiCHO culture supernatant on LN319 cells
Experimental: Plasmids of the H chain and the L chain of chPMab117-mG2a were introduced into ExpiCHO cell lines (product of Thermo Fisher) by lipofection and a recombinant antibody of chPMab117-mG2a was expressed in the culture supernatant. The culture supernatant was collected two days after gene introduction. It was reacted with LN 319 cells at 4° C. for 30 minutes and was then reacted further with an anti-mouse IgG-FITC antibody (product of Thermo Fisher) at 4° C. for 30 minutes. As a negative control, only a secondary antibody was used.

binding result (human podoplanin D82A)	binding result (human podoplanin T85A)	binding result (human podoplanin I78A)	binding result (human podoplanin E81A)	binding result (human podoplanin I80A)	binding result [1]	Binder
no binding (tested: 10 µg/mL)	no binding (tested: 10 µg/mL)	no binding (tested: 10 µg/mL)	no binding (tested: 10 µg/mL)	no binding (tested: 10 µg/mL)	–	human chimeric PMab-117 (chPMab-117) (antibody, human IgG1) heavy: not shown light: DVVLTQTPVAQPVTLGDQASISCRSSQSLVHSNGNTYLEWYLQKPGQSPQLLIYKVSNRFSGVPDRFIGSGSGSDFTLKISRVEPEDLGVYYCFQVTHDPFTFGSGTKLEIKRGSAAPSVFIFPPSDEQLKSGTASVVCLLNNFYPREAKVQWKVDNALQSGNSQESVTEQDSKDSTYSLSSTLTLSKADYEKHKVYACEVTHQGLSSPVTKSFNRGEC
–	–	–	–	–	binds	mouse chimeric PMab-117 (chPMab117-mG2a) (antibody, mouse IgG2a, kappa, tested as ExpiCHO culture supernatant; no limits stated) heavy: AVQLVESGGGLVQPKESLKISCAASGFTFSNAAMYWVRQAPGKGLEWVARIRSKPNNYATYYTDSVKGRFTISRDDSKSMVHLQMDNLKTEDTAMYYCTVGGNNYAAAYWGQGTLVTVSSAKTTAPSVYPLAPVCGDTTGSSVTLGCLVKGYFPEPVTLTWNSGSLSSGVHTFPAVLQSDLYTLSSSVTVTSSTWPSQSITCNVAHPASSTKVDKKIEPRGPTIKPCPPCKCPAPNLLGGPSVFIFPPKIKDVLMISLSPIVTCVVVDVSEDDPDVQISWFVNNVEVHTAQTQTHREDYNSTLRVVSALPIQHQDWMSGKEFKCKVNNKDLPAPIERTISKPKGSVRAPQVYVLPPPEEEMTKKQVTLTCMVTDFMPEDIYVEWTNNGKTELNYKNTEPVLDSDGSYFMYSKLRVEKKNWVERNSYSCSVVHEGLHNHHTTKSFSRTPGK light: DVVLTQTPVAQPVTLGDQASISCRSSQSLVHSNGNTYLEWYLQKPGQSPQLLIYKVSNRFSGVPDRFIGSGSGSDFTLKISRVEPEDLGVYYCFQVTHDPFTFGSGTKLEIKRADAAPTVSIFPPSTEQLATGGASVVCLMNNFYPRDISVKWKIDGTERRDGVLDSVTDQDSKDSTYSMSSTLSLTKADYESHNLYTCEVVHKTSSSPVVKSFNRNEC
